Biological target: C3 convertase (C3bBb) (human) (UniProt P01024)
Assay: cell-based or functional assay

C3 convertase (C3bBb) (human), sequence (P01024 749-1663, chain 1 of 2): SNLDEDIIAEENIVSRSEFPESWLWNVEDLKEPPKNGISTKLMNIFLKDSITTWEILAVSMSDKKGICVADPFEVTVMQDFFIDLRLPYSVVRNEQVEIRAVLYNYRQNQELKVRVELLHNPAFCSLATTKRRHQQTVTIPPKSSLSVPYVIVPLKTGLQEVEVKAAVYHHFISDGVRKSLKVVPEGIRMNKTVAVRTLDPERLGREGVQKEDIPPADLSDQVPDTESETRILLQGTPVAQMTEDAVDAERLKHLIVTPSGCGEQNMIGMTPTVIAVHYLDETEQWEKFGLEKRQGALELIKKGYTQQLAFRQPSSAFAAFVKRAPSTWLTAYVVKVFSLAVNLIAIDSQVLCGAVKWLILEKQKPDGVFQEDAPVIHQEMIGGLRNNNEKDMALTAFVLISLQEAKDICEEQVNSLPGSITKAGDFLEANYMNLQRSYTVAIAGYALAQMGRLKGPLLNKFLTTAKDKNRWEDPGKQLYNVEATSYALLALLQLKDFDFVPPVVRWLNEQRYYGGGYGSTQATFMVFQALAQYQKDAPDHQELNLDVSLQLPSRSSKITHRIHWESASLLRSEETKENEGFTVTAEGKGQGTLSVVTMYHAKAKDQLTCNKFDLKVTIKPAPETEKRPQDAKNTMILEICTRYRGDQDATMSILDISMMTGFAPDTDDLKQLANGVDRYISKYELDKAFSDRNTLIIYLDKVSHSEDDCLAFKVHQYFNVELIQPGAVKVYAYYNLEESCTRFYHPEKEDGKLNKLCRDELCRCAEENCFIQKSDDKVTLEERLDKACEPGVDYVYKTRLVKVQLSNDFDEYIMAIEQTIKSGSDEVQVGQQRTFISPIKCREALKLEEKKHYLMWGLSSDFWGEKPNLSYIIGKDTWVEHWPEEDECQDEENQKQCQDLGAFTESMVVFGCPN
C3 convertase (C3bBb) (human), sequence (P00751 260-764, chain 2 of 2, further chain): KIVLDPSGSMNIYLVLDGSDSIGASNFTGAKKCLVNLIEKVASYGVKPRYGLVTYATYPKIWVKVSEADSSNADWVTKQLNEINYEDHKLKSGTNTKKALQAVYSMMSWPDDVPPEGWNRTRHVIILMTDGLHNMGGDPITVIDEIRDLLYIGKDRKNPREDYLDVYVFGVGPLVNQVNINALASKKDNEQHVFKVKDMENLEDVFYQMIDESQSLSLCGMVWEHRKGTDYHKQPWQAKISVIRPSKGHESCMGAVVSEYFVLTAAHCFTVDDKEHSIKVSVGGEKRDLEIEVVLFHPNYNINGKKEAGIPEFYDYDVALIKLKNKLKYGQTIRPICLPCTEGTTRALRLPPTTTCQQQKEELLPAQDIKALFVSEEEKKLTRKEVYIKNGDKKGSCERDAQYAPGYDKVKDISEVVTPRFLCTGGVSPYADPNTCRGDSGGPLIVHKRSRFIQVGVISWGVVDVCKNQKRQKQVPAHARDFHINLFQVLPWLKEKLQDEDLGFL

Row | Anti-C3 convertase (EC50 µg/ml) | Substance
1 | 0.093 µg/mL | FH fragment "SCR1-6" (SCR 1 to 6 of human factor H) (from UniProt P08603 19-388)

Biological target: C3b (purified) (UniProt P01024)
Assay: cell-based or functional assay

C3b (purified), sequence (P01024 749-1663, chain 1 of 2): as the sequence (P01024 749-1663, chain 1 of 2) above
C3b (purified), sequence (P01024 23-667, chain 2 of 2): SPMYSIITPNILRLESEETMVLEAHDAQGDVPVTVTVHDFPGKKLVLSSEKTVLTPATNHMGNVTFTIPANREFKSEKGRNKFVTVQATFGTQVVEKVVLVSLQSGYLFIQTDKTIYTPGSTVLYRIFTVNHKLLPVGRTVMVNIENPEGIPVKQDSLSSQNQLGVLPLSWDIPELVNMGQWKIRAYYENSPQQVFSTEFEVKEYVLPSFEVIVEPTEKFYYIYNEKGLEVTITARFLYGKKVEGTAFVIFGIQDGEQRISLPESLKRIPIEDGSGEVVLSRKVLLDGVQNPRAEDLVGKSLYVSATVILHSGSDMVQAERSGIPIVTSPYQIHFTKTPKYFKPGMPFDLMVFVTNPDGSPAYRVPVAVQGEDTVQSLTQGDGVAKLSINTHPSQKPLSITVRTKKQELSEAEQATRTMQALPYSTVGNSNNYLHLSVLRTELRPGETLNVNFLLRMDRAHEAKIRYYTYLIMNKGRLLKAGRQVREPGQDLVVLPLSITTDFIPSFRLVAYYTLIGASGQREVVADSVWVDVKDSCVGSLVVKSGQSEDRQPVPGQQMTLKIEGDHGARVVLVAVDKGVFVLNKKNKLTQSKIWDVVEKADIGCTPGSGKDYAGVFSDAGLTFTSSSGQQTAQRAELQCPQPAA

Row | F1 cofactor (%) | Substance
2 | 100% | FH fragment "1NT18" (SCR 1 to 18 of human factor H) (from UniProt P08603 19-1102)
3 | 0% | FH fragment "8CT20" (SCR 8 to 20 of human factor H) (from UniProt P08603 448-1231)
4 | 100% | FH fragment "SCR1-4" (SCR 1 to 4 of human factor H)
5 | 100% | FH fragment "SCR1-6" (SCR 1 to 6 of human factor H) (from UniProt P08603 19-388)

Continued, substance first:

Row | Substance | F1 cofactor (%)
6 | FH fragment "1NT7" (SCR 1 to 7 of human factor H) (from UniProt P08603 19-447) | 100%
7 | FH fragment "7CT18" (SCR 7 to 18 of human factor H) (from UniProt P08603 389-1102) | 0%
8 | FH fragment "7CT20" (SCR 7 to 20 of human factor H) (from UniProt P08603 389-1231) | 0%
9 | FH fragment "SCR6-8" (SCR 6 to 8 of human factor H) | 0%

Source: patent publication US20190388506A1
